The results in this text go back to article PMC6384913, “Exploring the suitability of RanBP2-type Zinc Fingers for RNA-binding protein design”.

The target of data set [1] is T1, (EWS-ZF)x2 (Homo sapiens, UniProt Q01844-5 523-555). As to the kind of experiment: BLI; ITC: 50 mM Tris pH 7.5, 150 mM NaCl, 1 mM DTT, 0.1 mM ZnCl2, 25 °C; BLI: 50 mM Tris pH 7.5, 150 mM NaCl, 1 mM DTT, 0.1% BSA, 0.02% Tween, 30 °C. As to conditions: protein: recombinant; tags: GST cleaved (HRV-3C); label: 5' biotin. In general terms: In BLI a coated tip is dipped into the sample, and binding shifts an interference pattern.
T1 sequence (Q01844 518-550): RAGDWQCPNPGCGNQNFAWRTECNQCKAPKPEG

The target in data set [2] is T2, (ABI3-5Sup-ZF)x2 (Arabidopsis thaliana, UniProt F4JCU0 379-406).
T2 chain: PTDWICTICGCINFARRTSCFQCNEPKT
The data set is described as above. As to conditions: protein: recombinant; tags: GST cleaved (HRV-3C); label: 5' biotin.

The next data set addresses T3, (hRBM10-ZF)x2 (Homo sapiens, UniProt P98175 212-243).
T3 chain: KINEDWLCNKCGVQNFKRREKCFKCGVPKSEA
The description is as above. To be noted: protein: recombinant; tags: GST cleaved (HRV-3C); label: 5' biotin.

In data set [3] the target is T4, (FUS-ZF)x2 (Xenopus laevis, UniProt Q7ZXQ2 435-467).
T4 chain: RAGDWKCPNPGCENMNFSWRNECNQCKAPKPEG
The description is as above. To be noted: protein: recombinant; tags: GST cleaved (HRV-3C); label: 5' biotin.

A further data set addresses T5, (ZRANB1-B-ZF)x2 (Danio rerio, UniProt A0JMQ9 152-182).
T5 chain: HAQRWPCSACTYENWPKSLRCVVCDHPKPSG
As to the kind of experiment: ITC; ITC: 50 mM Tris pH 7.5, 150 mM NaCl, 1 mM DTT, 0.1 mM ZnCl2, 25 °C; BLI: 50 mM Tris pH 7.5, 150 mM NaCl, 1 mM DTT, 0.1% BSA, 0.02% Tween, 30 °C. As to conditions: protein: recombinant; tags: GST cleaved (HRV-3C).

A further data set has as its target T6, (mRBM10-ZF N4D)x2 (Mus musculus, UniProt Q99KG3-2 135-166+=GSGSG+135-166, V161M;internal_change).
T6 sequence: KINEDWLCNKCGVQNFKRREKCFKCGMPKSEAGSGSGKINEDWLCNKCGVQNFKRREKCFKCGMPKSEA
The data set can be described thus: BLI; ITC: 50 mM Tris pH 7.5, 150 mM NaCl, 1 mM DTT, 0.1 mM ZnCl2, 25 °C; BLI: 50 mM Tris pH 7.5, 150 mM NaCl, 1 mM DTT, 0.1% BSA, 0.02% Tween, 30 °C. To be noted: protein: recombinant; tags: GST cleaved (HRV-3C); label: 5' biotin.

In data set [4] the target is T2, (ABI3-5Sup-ZF)x2. The data set can be described thus: ITC; ITC: 50 mM Tris pH 7.5, 150 mM NaCl, 1 mM DTT, 0.1 mM ZnCl2, 25 °C; BLI: 50 mM Tris pH 7.5, 150 mM NaCl, 1 mM DTT, 0.1% BSA, 0.02% Tween, 30 °C. As to conditions: protein: recombinant; tags: GST cleaved (HRV-3C). On the technique in general: Isothermal titration calorimetry measures the heat released or taken up as one component is titrated into another.

The target of data set [5] is T1, (EWS-ZF)x2. The data set is described as above. To be noted: protein: recombinant; tags: GST cleaved (HRV-3C).
For data set [6], the target named is T4, (FUS-ZF)x2. Described as above. As to conditions: protein: recombinant; tags: GST cleaved (HRV-3C).

B1: (AAA)x2 biotin (ssRNA)
RNA: AAAAAAAAAAAA
Regarding B1, the binding result with (EWS-ZF)x2 [1], in the data set with (ABI3-5Sup-ZF)x2 [2], in the data set with (hRBM10-ZF)x2 and in the data set with (FUS-ZF)x2 [3] was “no binding” throughout.

B2: (GGC)x2 biotin (ssRNA)
RNA: AAAGGCGGCAAA
By Kd is commonly meant the free concentration of one partner at which half of the binding sites on the other are occupied at equilibrium, for simple one-to-one binding. As for B2, the binding result in the data set with (EWS-ZF)x2 [1] and in the data set with (FUS-ZF)x2 [3] was “no binding” each time. In addition, the Kd with (hRBM10-ZF)x2 amounted to 2600 ± 30 nM.

B3: (AGU)x2 biotin (ssRNA)
RNA: AAAAGUAGUAAA
With B3, the binding result with (EWS-ZF)x2 [1], with (ABI3-5Sup-ZF)x2 [2], with (hRBM10-ZF)x2 and in the data set with (FUS-ZF)x2 [3] was “no binding” each time.

B4: (GAU)x2 biotin (ssRNA)
RNA: AAAGAUGAUAAA
As for B4, the binding result in the data set with (EWS-ZF)x2 [1], in the data set with (ABI3-5Sup-ZF)x2 [2], with (hRBM10-ZF)x2 and with (FUS-ZF)x2 [3] was “no binding” in each case.

B5: (GGA)x2 biotin (ssRNA)
RNA: AAAGGAGGAAAA
In the case of B5, the binding result with (EWS-ZF)x2 [1] and in the data set with (FUS-ZF)x2 [3] was “no binding” in each case. Besides, the Kd with (ABI3-5Sup-ZF)x2 [2] turned out to be 2600 ± 1000 nM; with (hRBM10-ZF)x2 it was 1400 ± 10 nM.

B6: polyA control 12-mer (ssRNA)
RNA: AAAAAAAAAAAA
Regarding B6, the binding result in the data set with (ZRANB1-B-ZF)x2 is given as “no binding”.

B7: (GGG)x2 biotin (ssRNA)
RNA: AAAGGGGGGAAA
In the case of B7, the Kd with (EWS-ZF)x2 [1] is 1100 ± 10 nM; with (ABI3-5Sup-ZF)x2 [2] it was 3000 ± 500 nM; in the data set with (hRBM10-ZF)x2, 300 ± 30 nM; with (FUS-ZF)x2 [3], 1100 ± 300 nM; with (mRBM10-ZF N4D)x2, 400 ± 30 nM.

B8: (GGA)x2 (ssRNA)
RNA: AAAGGAGGAAAA
Turning to B8, the Kd with (ABI3-5Sup-ZF)x2 [4] stood at 1000 ± 100 nM.

B9: (GGU)x2 biotin (ssRNA)
RNA: AAAGGUGGUAAA
B9: the Kd with (EWS-ZF)x2 [1] worked out at 800 ± 60 nM; in the data set with (ABI3-5Sup-ZF)x2 [2], 1000 ± 10 nM; in the data set with (hRBM10-ZF)x2 it was 500 ± 10 nM; with (FUS-ZF)x2 [3] it was 800 ± 70 nM.

B10: (GGU)x2 (ssRNA)
RNA: AAAGGUGGUAAA
For B10, the Kd was 200 ± 30 nM with (EWS-ZF)x2 [5], 700 ± 100 nM in the data set with (ABI3-5Sup-ZF)x2 [4] and 200 ± 20 nM in the data set with (FUS-ZF)x2 [6]. The binding result with (ZRANB1-B-ZF)x2 is listed as “no binding”.
